Tests used:
[1] = test system: GRG31 EPSP synthase enzymatic activity; test: Temperature optimum of GRG31 enzymatic activity (phosphate release, AMPLEX Red fluorescence); assay type: biochemical, Sphingobacterium multivorum/faecium
Experimental: Following IPTG induction, the GRG31 protein was purified to homogeneity by standard methods. […] Following incubation, the enzyme was heated to 90° C. for 1 minute to denature the enzyme, and then cooled to 4° C. The phosphate generated by each reaction was then added to a second assay containing inosine, purine nucleoside phosphorylase, xanthine oxidase, horseradish peroxidase, and the fluorescent substrate AMPLEX® Red (U.S. Patent Application No. 60/741,166, filed Dec. 1, 2005). Following incubation for 15 minutes at room temperature, fluorescent product was quantified using a Gemini XPS spectrofluorometer (Molecular Devices Corporation, Sunnyvale, Calif.). EPSP synthase product formation was measured, and is expressed in Table 5 as a percentage of maximal activity.

[2] = test system: GRG31 EPSP synthase enzymatic activity; test: Thermal stability of GRG31 enzymatic activity at 37° C. (AMPLEX Red assay, 2 mM glyphosate); assay type: biochemical, Sphingobacterium multivorum/faecium
Experimental: Following IPTG induction, the GRG31 protein was purified to homogeneity by standard methods. To measure enzymatic activity, the purified GRG31 enzyme was diluted to an appropriate assay concentration in buffer containing HEPES (50 mM, pH 7) and 50 mM KCl, and then incubated at 37° C. for 0, 2, 6 or 22 hours. A control sample was incubated alongside at 4° C. At each timepoint, an aliquot was removed from each sample and enzymatic assays were carried out in a final volume of 50 μl containing 0.5 mM shikimate-3-phosphate, 200 uM phosphoenolpyruvate (PEP), 1 U/ml xanthine oxidase, 2 U/ml nucleoside phosphorylase, 2.25 mM inosine, 1 U/ml horseradish peroxidase, 2 mM glyphosate, 50 mM HEPES/KOH pH 7.0, 100 mM KCl, and AMPLEX® Red (Invitrogen) according to the manufacturer's instructions. Assays were started by adding shikimate-3-phosphate. EPSP synthase activity was measured using a Spectramax Gemini XPS fluorescence spectrometer (Molecular Dynamics, excitation: 555 nm; emission: 590 nm). EPSP synthase thermal stability was calculated as the percentage of enzymatic activity at each timepoint at 37° C. relative to enzymatic activity in the control sample incubated alongside at 4° C. (Table 6).

B1: GRG31: glyphosate-resistant EPSP synthase, predicted translation product of grg31, from strain ATX21318 (protein)
chain: MNQQVITLTHPSKKIQGTVQLTGSKSESNRALIIQSLSKGQVEIANLSEAADTVTLNRVLQIASDPKPGFNTIDIGPAGTAMRFLTAYLNLVKGNFILTGTERMQQRPIGILVDAMKEIGADIHYDKKVGYPPLKIEGGLFQEKDRVKIKGNISSQYISALLLIAPALKKGLTLEIEGELTSRPYVSMTLDMLKSVGIQHEWKNNAIKIAPQAFEKQTIYVEPDWSAASYWYAIAALADANASIVLPGLRKNSLQGDIAIISIMEHFGVQSSFESDGLHLNKKVIGSDVSLFNFKECPDLAQTVVVVAAALKRDVSFTGLETLKIKETDRIAALQKEIAKFGAELIEDGDTYHLKTAQVYQPEEVTFDTYEDHRMAMAFAPLALVFDQIKIAEPQVVEKSYPDFWNHLQAQAFVIE
modifications: Sphingobacterium multivorum/faecium
notes: glyphosate-resistant EPSP synthase, predicted translation product of grg31, from strain ATX21318
Percentage of Maximal Activity ([1]; 10 ° C., 15 minutes incubation): 42%
Percentage of Maximal Activity ([1]; 20 ° C., 15 minutes incubation): 62%
Percentage of Maximal Activity ([1]; 30 ° C., 15 minutes incubation): 69%
Percentage of Maximal Activity ([1]; 40 ° C., 15 minutes incubation): 80%
Percentage of Maximal Activity ([1]; 50 ° C., 15 minutes incubation): 100%
Percentage of Maximal Activity ([1]; 60 ° C., 15 minutes incubation): 96%
Percentage of Maximal Activity ([1]; 70 ° C.): 67%
Percentage of Maximal Activity ([1]; 80 ° C.): 36%
Percentage of control (enzymatic activity at 37° C. relative to control at 4° C.) ([2]; 0 hours at 37° C.): 100%
Percentage of control (enzymatic activity at 37° C. relative to control at 4° C.) ([2]; 2 hours at 37° C.): 86%
Percentage of control (enzymatic activity at 37° C. relative to control at 4° C.) ([2]; 6 hours at 37° C.): 68%
Percentage of control (enzymatic activity at 37° C. relative to control at 4° C.) ([2]; 22 hours at 37° C.): 29%

— US9045765B2, “EPSP synthase genes conferring herbicide resistance” (priority 2006, dated 2015)
